Source: patent US20240360238A1 (MAGENTA THERAPEUTICS, published 2024)

What was measured:
[1] = molecular target: T1, purified human CD117 ectodomain (R&D Systems #332-SR) (human, UniProt P10721 26-524); assay: BLI, purified IgG on sensor, soluble ectodomain; apparent monovalent
T1 construct: extracellular domain; Bought protein; also called c-kit; purified recombinant human CD117 ectodomain

[2] = molecular target: T2, purified rhesus CD117 ectodomain (rhesus, UniProt F6V858 26-524); assay: BLI, purified IgG on sensor, soluble rhesus ectodomain; apparent monovalent
T2 construct: extracellular domain; also called rhesus antigen

[3] = molecular target: CD117 on Kasumi-1 cells and primary human CD34+ bone marrow cells (human, UniProt P10721 26-976); assay: cell-based or functional assay
CD117 on Kasumi-1 cells and primary human CD34+ bone marrow cells, sequence (P10721 26-976): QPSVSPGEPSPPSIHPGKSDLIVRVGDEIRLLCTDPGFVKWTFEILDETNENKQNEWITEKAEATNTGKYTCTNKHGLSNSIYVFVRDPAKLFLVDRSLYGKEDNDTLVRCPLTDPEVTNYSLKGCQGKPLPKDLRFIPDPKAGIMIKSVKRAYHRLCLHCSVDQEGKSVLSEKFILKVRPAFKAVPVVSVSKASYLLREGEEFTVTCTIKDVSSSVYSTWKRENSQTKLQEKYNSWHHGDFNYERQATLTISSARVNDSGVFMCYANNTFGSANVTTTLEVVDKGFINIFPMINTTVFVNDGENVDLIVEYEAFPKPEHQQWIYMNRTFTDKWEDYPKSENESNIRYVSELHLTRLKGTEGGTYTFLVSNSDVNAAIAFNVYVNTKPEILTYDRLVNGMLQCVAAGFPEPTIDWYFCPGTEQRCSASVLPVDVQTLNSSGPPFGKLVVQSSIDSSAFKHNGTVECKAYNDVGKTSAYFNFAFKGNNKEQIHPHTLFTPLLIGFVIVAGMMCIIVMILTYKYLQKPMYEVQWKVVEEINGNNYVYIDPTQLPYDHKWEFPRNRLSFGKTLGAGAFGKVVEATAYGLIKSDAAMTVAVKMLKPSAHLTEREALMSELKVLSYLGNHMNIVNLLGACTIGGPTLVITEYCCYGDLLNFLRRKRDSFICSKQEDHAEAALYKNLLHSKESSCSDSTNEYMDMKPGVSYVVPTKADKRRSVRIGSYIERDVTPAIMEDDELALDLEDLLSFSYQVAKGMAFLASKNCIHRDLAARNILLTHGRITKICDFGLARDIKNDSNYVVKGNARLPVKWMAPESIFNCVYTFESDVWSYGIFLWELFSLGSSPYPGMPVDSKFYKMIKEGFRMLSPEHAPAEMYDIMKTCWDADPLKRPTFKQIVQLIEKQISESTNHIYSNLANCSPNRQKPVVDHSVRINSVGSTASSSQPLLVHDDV

T1 sequence (P10721 26-524): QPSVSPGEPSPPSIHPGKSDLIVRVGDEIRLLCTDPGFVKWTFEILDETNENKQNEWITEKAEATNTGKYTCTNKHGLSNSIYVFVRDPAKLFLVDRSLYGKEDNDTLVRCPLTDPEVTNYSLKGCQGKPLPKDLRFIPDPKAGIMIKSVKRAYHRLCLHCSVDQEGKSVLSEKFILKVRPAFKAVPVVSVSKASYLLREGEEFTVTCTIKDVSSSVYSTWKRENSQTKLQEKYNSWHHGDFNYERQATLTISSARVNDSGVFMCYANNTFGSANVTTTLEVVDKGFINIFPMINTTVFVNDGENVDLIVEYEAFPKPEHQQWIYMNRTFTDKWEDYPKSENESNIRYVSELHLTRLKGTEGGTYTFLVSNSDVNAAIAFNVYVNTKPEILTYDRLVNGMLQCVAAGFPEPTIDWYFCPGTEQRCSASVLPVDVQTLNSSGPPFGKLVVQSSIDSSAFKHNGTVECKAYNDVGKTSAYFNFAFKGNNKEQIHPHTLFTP

Binder	Kd [1] [nM]	koff [1] [s⁻¹]	kon [1] [M⁻¹ s⁻¹]	Kd [2] [nM]	koff [2] [s⁻¹]	kon [2] [M⁻¹ s⁻¹]	% efficacy, killing of primary human CD34+CD90+ cells [3] [%]	IC50, killing of primary human CD34+CD90+ cells (5 days, flow cytometry counts) [3] [nM]
HC-24/LC-24 (Ab24) (antibody, IgG1, V domains shown, From rat immunization/hybridoma; purified IgG in BLI; also called 024) VH: EVQLVESGGGLVQSGRSLKLSCAASGFTVSDYYMAWVRQAPTKGLEWVATINYDGSTTYHRDSVKGRFTISRDNAKSTLYLQMDSLRSEDTATYYCARHGDYGYHYGAYYFDYWGQGVMVTVSS VL: DIVLTQSPALAVSLGQRATISCRASQTVSLSGYNLIHWYQQRTGQQPKLLIYRASNLAPGIPARFSGSGSGTDFTLTISPVQSDDIATYYCQQSRESWTFGGGTNLEMK	0.986	0.00011	111000	19.6	0.000777	39700	–	–
HC-25/LC-25 (Ab25) (antibody, IgG1, V domains shown, From rat immunization/hybridoma; purified IgG in BLI; also called 025) VH: QIQLVQSGPELKKPGESVKISCKASGYTFTDYAIHWVKQAPGQGLRWMAWINTETGKPTYADDFKGRFVFSLEASASTAHLQISNLKNEDTATFFCAGGSHWFAYWGQGTLVTVSS VL: SYELIQPPSASVTLENTVSITCSGDELSNKYAHWYQQKPDKTILEVIYNDSERPSGISDRFSGSSSGTTAILTIRDAQAEDEADYYCLSTFSDDDLPIFGGGTKLTVL	0.52	0.00153	2.94e+06	0.81	0.00195	2.41e+06	–	–
HC-27/LC-27 (Ab27) (antibody, IgG1, V domains shown, From rat immunization/hybridoma; purified IgG in BLI; also called 027) VH: EVQLVESGGGLVQPGRSMKLSCKASGFTFSNYDMAWVRQAPTRGLEWVASISYDGITAYYRDSVKGRFTISRENAKSTLYLQLVSLRSEDTATYYCTTEGGYVYSGPHYFDYWGQGVMVTVSS VL: DIQMTQSPSSMSVSLGDTVTITCRASQDVGIFVNWFQQKPGRSPRRMIYRATNLADGVPSRFSGSRSGSDYSLTISSLESEDVADYHCLQYDEFPRTFGGGTKLELK	0.53	0.000378	712000	0.89	0.000275	309000	–	–
HC-21/LC-21 (Ab21) (antibody, IgG1, V domains shown, From rat immunization/hybridoma; purified IgG in BLI; also called 021) VH: QIQLVQSGPELKKPGESVKISCKASGYTFTDYAVYWVIQAPGKGLKWMGWINTYTGKPTYADDFKGRFVFSLETSASTANLQISNLKNEDTATYFCARGAGMTKDYVMDAWGRGVLVTVS VL: SYELIQPPSASVTLGNTVSLTCVGDELSKRYAQWYQQKPDKTIVSVIYKDSERPSDISDRFSGSSSGTTATLTIHGTLAEDEADYYCLSTYSDDNLPVFGGGTKLTVL	0.715	0.000437	612000	0.869	0.000357	410000	–	–
HC-77/LC-77 anti-CD117-ADC (conjugated to an amatoxin) (antibody, V domains shown, antibody conjugated to an amatoxin; site not stated) VH: QVQLVQSGAAVKKPGESLKISCKGSGYRFTTYWIGWVRQMPGKGLEWMGIIYPGDSDTRYSPSFQGQVTISAGKSISTAYLQWSSLKASDTAMYYCARHGRGYNGYEGAFDIWGQGTMVTVSS VL: DIQLTQSPSSLSASVGDRVTITCRASQGVISALAWYQQKPGKAPKLLIYDASILESGVPSRFSGSGSGTDFTLTISSLQPEDFATYYCQQFNSYPLTFGGGTKVEIK	–	–	–	–	–	–	54.4	0.00694
HC-245/LC-245 anti-CD117-ADC (conjugated to an amatoxin) (antibody, V domains shown, antibody conjugated to an amatoxin; site not stated) VH: EVQLVQSGAEVKKPGESLKISCKGSGYRFTTSWIGWVRQMPGKGLEWMGIIYPGDSDTRYSPSFQGQVTISADKSISTAYLQWSSLKASDTAMYYCARHGLGYNGYEGAFDIWGQGTLVTVSS VL: DIQMTQSPSSLSASVGDRVTITCRASQGIGSALAWYQQKPGKAPKLLIYDASTLESGVPSRFSGSGSGTDFTLTISSLQPEDFATYYCQQFNGYPLTFGQGTRLEIK	–	–	–	–	–	–	76.4	0.00578
HC-246/LC-246 anti-CD117-ADC (conjugated to an amatoxin) (antibody, V domains shown, antibody conjugated to an amatoxin; site not stated) VH: QVQLVQSGAAVKKPGESLKISCKGSGYRFTTYWIGWVRQMPGKGLEWMGIIYPGDSDTRYSPSFQGQVTISAGKSISTAYLQWSSLKASDTAMYYCARHGRGYNGYEGAFDIWGQGTMVTVSS VL: DIQMTQSPSSLSASVGDRVTITCRASQGIGSALAWYQQKPGKAPKLLIYDASTLESGVPSRFSGSGSGTDFTLTISSLQPEDFATYYCQQFNGYPLTFGQGTRLEIK	–	–	–	–	–	–	67.8	0.00453
HC-81/LC-81 anti-CD117-ADC (conjugated to an amatoxin) (antibody, V domains shown, antibody conjugated to an amatoxin; site not stated) VH: QVQLVQSGAAVKKPGESLKISCKGSGYRFTTYWIGWVRQMPGKGLEWMGIIYPGDSDTRYSPSFQGQVTISAGKSISTAYLQWSSLKASDTAMYYCARHGRGYNGYEGAFDIWGQGTMVTVSS VL: DIQLTQSPSSLSASVGDRVTITCRASQGVISALAWYQQKPGKAPKLLIYDASTLESGVPSRFSGSGSGTDFTLTISSLQPEDFATYYCQQFNSYPLTFGGGTKVEIK	–	–	–	–	–	–	68.7	0.00377
HC-248/LC-248 anti-CD117-ADC (conjugated to an amatoxin) (antibody, V domains shown, antibody conjugated to an amatoxin; site not stated) VH: EVQLVQSGAEVKKPGESLKISCKGSGYRFTTSWIGWVRQMPGKGLEWMGIIYPGDSDTRYSPSFQGQVTISADKSISTAYLQWSSLKASDTAMYYCARHGLGYNGYEGAFDIWGQGTLVTVSS VL: DIQMTQSPSSLSASVGDRVTITCRASQGIGSALAWYQQKPGKAPKLLIYDASTLESGVPSRFSGSGSGTDFTLTISSLQPEDFATYYCQQLNGYPLTFGQGTRLEIK	–	–	–	–	–	–	47.8	0.00646
HC-247/LC-247 anti-CD117-ADC (conjugated to an amatoxin) (antibody, V domains shown, antibody conjugated to an amatoxin; site not stated) VH: QVQLVQSGAAVKKPGESLKISCKGSGYRFTTYWIGWVRQMPGKGLEWMGIIYPGDSDTRYSPSFQGQVTISAGKSISTAYLQWSSLKASDTAMYYCARHGRGYNGYEGAFDIWGQGTMVTVSS VL: DIQMTQSPSSLSASVGDRVTITCRASRGISDYLAWYQQKPGKAPKLLIYDASNLETGVPSRFSGSGSGTDFTLTISSLQPEDFATYYCQQANSFPITFGQGTRLEIK	–	–	–	–	–	–	55.4	0.00837
HC-79/LC-79 anti-CD117-ADC (conjugated to an amatoxin) (antibody, V domains shown, antibody conjugated to an amatoxin; site not stated) VH: QVQLVQSGAAVKKPGESLKISCKGSGYRFTTYWIGWVRQMPGKGLEWMGIIYPGDSDTRYSPSFQGQVTISAGKSISTAYLQWSSLKASDTAMYYCARHGRGYNGYEGAFDIWGQGTMVTVSS VL: DIQLTQSPSSLSASVGDRVTITCRASQGVGSALAWYQQKPGKAPKLLIYDASILESGVPSRFSGSGSGTDFTLTISSLQPEDFATYYCQQFNSYPLTFGGGTKVEIK	–	–	–	–	–	–	63.4	0.00709
HC-22/LC-22 (Ab22) (antibody, IgG1, V domains shown, From rat immunization/hybridoma; purified IgG in BLI; also called 022) VH: QVQLKESGPGLVQPSQTLSLTCTVSGFSLTSYLVHWVRQPPGKTLEWVGLMWNDGDTSYNSALKSRLSISRDTSKSQVFLKMHSLQAEDTATYYCARESNLGFTYWGHGTLVTVSS VL: DIQMTQSPASLSASLEEIVTITCKASQGIDDDLSWYQQKPGKSPQLLIYDVTRLADGVPSRFSGSRSGTQYSLKISRPQVADSGIYYCLQSYSTPYTFGAGTKLELK	0.0964	0.000221	2.29e+06	0.0891	0.000155	1.74e+06	–	–
